The record followed here is article PMC5544353.

The target of the experiment is Reconstituted CENP-A chromatin (CENP-A nucleosome arrays with Myc-tagged histone H4) (UniProt Q569M3). Description: chromatin-bead binding read by immunofluorescence.
Sequence of UniProt Q569M3 (Q569M3 whole entry, looked up): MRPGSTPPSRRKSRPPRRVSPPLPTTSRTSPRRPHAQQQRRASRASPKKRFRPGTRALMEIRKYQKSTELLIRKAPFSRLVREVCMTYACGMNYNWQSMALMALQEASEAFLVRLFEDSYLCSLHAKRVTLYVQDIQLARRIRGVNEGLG

Regarding “Xenopus laevis M18BP1-1 (natural protein)”, the fold enrichment on CENP-A chromatin relative to H3 chromatin was found to be 2.5 fold.

With “M18BP1-2 truncation, amino acids 747-944 (in vitro translated) (domain or fragment)”, the binding as percent of full-length M18BP1-2 is 53%.

For the substance “Xenopus laevis M18BP1-2, full length (natural protein)”, the fold enrichment on CENP-A chromatin relative to H3 chromatin came to 5 fold.
